Results reported in patent US8540999B2, “Allergenic proteins and peptides from Japanese cedar pollen” (Merck Patent GmbH, priority 1991, dated 2013).

What was measured:
[1] = tested on: IgE antibodies; conditions: Sakaguchi (1990); cited from earlier work
[2] = tested on: patients' plasma IgE; experiment: Direct binding assay of IgE to Cry j I, Cry j II and recombinant Cry j II (Example 18); parameters: species or system human
Experimental: Costar assay plates were coated with Cry j I or Cry j II at 2 μg/mL or recombinant Cry j II preparation at 10 μg/mL (approximately 20% pure) in a volume of 50 μL overnight at 4° C. The coating antigens were removed and the wells were blocked with 0.5% gelatin, PVP (polyvinyl pyrolidine) 1 mg/mL in PBS, 200 μL/well for 2 hours at room temperature. The anti-Cry j I monoclonal antibody, 4B11, was serially diluted in PBS-Tween 20 starting at a 1:1000 dilution. The human plasma were serially diluted in PBS-Tween at a starting dilution of 1:2. For this set 23 plasma samples from patients symptomatic for Japanese cedar pollen allergy chosen for IgE binding analysis. The first antibody incubation proceeded overnight at 4° C. Following three washes with PBS-Tween the second antibodies were added (biotinylated goat anti-mouse Ig or goat anti-human IgE both at 1:2000) and incubated for two hours at room temperature at 100 μL/well. After washing 3 times, […]. This solution was removed and streptavidin-HRPO diluted to 1:10,000, was added at 100 μL/well. The color was allowed to develop for 2-5 minutes. The reaction was stopped by the addition of 100 μL/well of 1M phosphoric acid. Plates were read on a Microplate IL310 Autoreader (Biotek Instruments, Winooski, Vt.) with a 450 nm filter. The absorbance levels of duplicate wells were averaged. A positive binding result, indicated by a plus sign is determined to be a reading of two-fold or greater above background (no first antibody) at the second dilution of plasma ([…]).

[3] = tested on: allergic patient IgE; experiment: Allergic sera titration of purified subfractions of Cry j I (FIG. 3); type: binding, human; conditions: pool of fifteen allergic patient plasma
Description: In summary, three Cry j I isoforms of different molecular weight were purified from pollen extract. The molecular weights estimated by SDS-PAGE ranged from 40-35 kD under both reducing and non-reducing conditions. The isoelectric point of these isoforms is approximately 9.5-8.6, with an average pI of 9.0. The N-terminal 20 amino acid sequence was the same in these 3 bands and was identical to previously published Cry j I sequence (Taniai et al, supra). The 3 isoforms are all recognized by monoclonal antibody CBF2 as shown in the allergic sera titration of different purified subfractions of Cry j I using a pool of fifteen allergic patient plasma. […] The difference in molecular weight and isoelectric point in these isoforms might in part be due to post-translational modification, e.g. glycosylation, phosphorylation or lipid content. The possibility that these different isoforms might be due to protease degradation cannot be ruled out at present even though it is unlikely due to the fact that four different protease inhibitors were used during extraction and purification. The other possibility could be due to polymorphism in the gene or alternate splicing in the mRNA though only one major form of Cry j I protein has been detected in cDNA cloning studies (see Example 4).

[4] = tested on: Cry j I reactive T cells; experiment: T cell proliferation assay, Cry j I primed T cell lines, modified peptides (Example 11); type: cell-based, human; conditions: panel of thirty-nine patients, FIG. 21
Experimental: Long term T cell lines were established by stimulation of 2×10^6 PBL/ml in bulk cultures of complete medium (RPMI-1640, 2 mM L-glutamine, 100 U/ml penicillin/streptomycin, 5×10^−5M 2-mercaptoethanol, and 10 mM HEPES supplemented with 5% heat inactivated human AB serum) with 20 μg/ml of partially purified native Cry j I (75% purity containing three bands similar to the three bands in FIG. 2) for 6 days at 37° C. in a humidified 5% CO2 incubator to select for Cry j I reactive T cells. This amount of priming antigen was determined to be optimal for the activation of T cells from most cedar pollen allergic patients. Viable cells were purified by LSM centrifugation and cultured in complete medium supplemented with 5 units recombinant human IL-2/ml and 5 units recombinant human IL4/ml for up to three weeks until the cells no longer responded to lymphokines and were considered “rested”. The ability of the T cells to proliferate to selected Cry j I peptides, partially purified Cry j I, affinity purified Cry j I, or positive (PHA) controls or negative controls (medium only) was then assessed. […]
The maximum response in a titration of each peptide is expressed as the stimulation index (S.I.). […]

plasma IgE binding response ([2]; patient #1034): no detectable binding
plasma IgE binding response ([2]; patient plasma samples, FIGS. 31-33): variable response
B1: purified native Cry j I: major allergen of Japanese cedar pollen, biochemically purified in the native form (protein)
chain: DNPIDSCWRGDSNWAQNRMKLADCAVGFGSSTMGGKGGDLYTVTNSDDDPVNPAPGTLRYGATRDRPLWIIFSGNMNIKLKMPMYIAGYKTFDGRGAQVYIGNGGPCVFIKRVSNVIIHGLYLYGCSTSVLGNVLINESFGVEPVHPQDGDALTLRTATNIWIDHNSFSNSSDGLVDVTLTSTGVTISNNLFFNHHKVMLLGHDDAYSDDKSMKVTVAFNQFGPNCGQRMPRARYGLVHVANNNYDPWTIYAIGGSSNPTILSEGNSFTAPNESYKKQVTIRIGCKTSSSCSNWVWQSTQDVFYNGAYFVSSGKYEGGNIYTKKEAFNVENGNATPQLTKNAGVLTCSLSKRC
allergic patients with IgE that only reacted with this allergen [1]: 29%
IgE binding of purified isoforms [3]: bind allergic patient IgE
T cell line response [4]: All but one of the thirty-nine T cell lines responded
